B1: Reference antibody 1 (Benchmark 1-175D10) (antibody, V domains shown)
VH: QVQLQQPGAELVRPGASVKLSCKASGYTFTSYWINWVKQRPGQGLEWIGNIYPSDSYTNYNQKFKDKATLTVDKSSSTAYMQLSSPTSEDSAVYYCTRSWRGNSFDYWGQGTTLTVSS
VL: DIVMTQSPSSLTVTAGEKVTMSCKSSQSLLNSGNQKNYLTWYQQKPGQPPKLLIYWASTRESGVPDRFTGSGSGTDFTLTISSVQAEDLAVYYCQNDYSYPFTFGSGTKLEIK
B2: Reference antibody 2 (Benchmark 2-163E12) (antibody, V domains shown)
VH: QVQLQQSGAELARPGASVKLSCKASGYTFTDYYINWVKQRTGQGLEWIGEIYPGSGNTYYNEKFKGKATLTADKSSSTAYMQLSSLTSEDSAVYFCARSYGAFDYWGQGTTLTVSS
VL: B1 VL with F102L, S106A, I112L
B3: Ab 376 (antibody, V domains shown)
VH: DVKLVESGGGLVKPGGSLKLSCAASGFTFSSYTMSWVRQTPEKRLYWVATISSGVSYTYYPDSVKGRFTISRDNAKNTLYLQMSSLKSEDTAMYYCTRLTKGNAMDYWGQGTSVTVSS
VL: B1 VL with D76G, S106A, I112L
notes: Full-length IgG from ExpiCHO
B4: Ab 301 (antibody, V domains shown)
VH: VVQLQQSGPELVKPGASVKMSCKASGYTFTSFLIHWVRQKPGLGLEWIGYINPYDYGINYNVKFMDKVTLTSDKTSSTAYMELSSLTSADSAIYYCTRGDYWGQGTSVIVSS
VL: DIVMTQSPSSLAVTTGEQVTMNCKSSQSLLNSGNQKNYLTWYQQKTGQSPKLLIYWASTRQSGVPDRFTGSGSGTDFTLTISSVQAEDLAVYYCLNDYGFPLTFGAGTKLELK
notes: Full-length IgG from ExpiCHO
B5: Ab 360 (antibody, V domains shown)
VH: VVQLQQSGPELVKPGASVKMSCKASGYTFTSYLMHWVRQKPGLGLDWIGYINPYNDGTNYNAKFIDKATLTSDKTSSTAYMELSSLTSEDSAIYYCTRGDYWGQGTSVTVSS
VL: B4 VL with T15A, N22S, T46P, S49P, T59I
notes: Full-length IgG from ExpiCHO; also called 360-Chim
B6: Ab 331 (antibody, V domains shown)
VH: EVQLQQSGPELVKPGASVRMSCKASGYTFTSYIMHWVKQKPGQGPEWMGYINPYNDGTNYNEKFKDKATLTSDKSSSTAYMDLSSLTSEDSAVYYCTRGDYWGQGTSVTVSS
VL: B1 VL with I54F, R60K, E61K, G74R, Q95L, Y100F, F102L, S106A, I112L
notes: Full-length IgG from ExpiCHO
B7: Ab 400 (antibody, V domains shown)
VH: QVQLKESGPGLVAPSQSLSITCTVSGFSLNSYGVSWVRQPPGKGLEWLGVIWGDGSTNYHSALKSRLNINKDKSKSQVFLKLNSLQTDDTATYYCARPTRGNAMDYWGQGTSVTVSS
VL: B1 VL with I2V, S22N, K36R, N37S, V64A, T75A, V91I, D97N, S99N
notes: Full-length IgG from ExpiCHO
B8: Ab 347 (antibody, V domains shown)
VH: EVQLQQSGPELVKPGASVKMSCKASGYTFTSYLIHWVKQKPGQGLEWIGYINPYNDATYYNEKFKAKATLTSDKSSSTAYMELSSLTSEDTAIYYCTRGDYWSQGTSVTVSS
VL: B1 VL with E61Q, A90T, Q95L, Y100F, F102L, S106A, I112L
notes: Full-length IgG from ExpiCHO
B9: Ab 358 (antibody, V domains shown)
VH: VVQLVESGGDFVQPGGSRKLSCAVSGFTFSSFGMHWVRQAPEKGLEWVAYISSGTTNIYYADTVKGRFTVSRDNPKNSLFLHMTSLRSEDTAMYYCVRSGYYGNSLDYWGQGTPLTVSS
VL: B1 VL with L30F, K36R, D76G, V91F, D97V, S99I, F102L, S106L, I112L, K113R
notes: Full-length IgG from ExpiCHO
B10: Ab 432 (antibody, V domains shown)
VH: QIQLQQSGAELARPRASVKLSCKASGYTFTSDVISWVKQRPGQGLEWIGESYLRNGNTYYNENFKGKATLTADKSSSTAYMELRSLTSEDSAVYFCARSYYGNSFAYWGQGTLVTVSA
VL: B1 VL with G16R, S22N, S26T, D97A, S99Y, S106G
notes: Full-length IgG from ExpiCHO; also called 432-Chim
B11: Ab 369 (antibody, V domains shown)
VH: B3 VH with S30T, Y46E, S52I, S53I, V55G, T100V
VL: B1 VL with V3L, S22T, T59S, S106A, I112L
notes: Full-length IgG from ExpiCHO
B12: Ab 307 (antibody, V domains shown)
VH: B3 VH with Y46E, S52I, S53I, V55G, T100V, T115A
VL: B1 VL with A15T, T40S, K45I, I54F, S83N, S106A, I112L, K113R
notes: Full-length IgG from ExpiCHO
B13: Ab 409 (antibody, V domains shown)
VH: QVQLQQSGAELARPGASVKLSCKASGYTFTSYGISWVKQRTGQGLEWIGEISPRSGNTYYNEKFKGKATLTADKSSSTAYMELRSLTSEDSAVYFCATGVITTVIPTDWYFDVWGTGTTVTVSS
VL: DIQMTQTTSSLSASLGDRVTISCRASQDISNYLNWYQQKPDGTVKLLIYYTSRLHSGVPSRFSGSGSGTDYSLTISNLEPEDIATYYCQHYSKLPPTFGSGTKLEIK
notes: Full-length IgG from ExpiCHO; 38 is used
B14: Ab 416 (antibody, V domains shown)
VH: EFQLQQSGPELVKPGASVKISCKASVYSFTGYNMNWVKQSNGKSLEWIGVINPNYGNTNYNQRFKGKATLTVDQSSSTAYMQLNSLTSEDSAVYYCARSEDYYNIRGASWGQGTLVTVSA
VL: QIVLTQSPAIMSASPGQKVTITCSASSTINYMHWYQQKLGSSPKLWIYDTSKLAPGVPARFSGSGSGTSYSLTISSMEAEDAASYFCHQWSSYPPTFGSGTKLELK
notes: Full-length IgG from ExpiCHO
B15: Ab 384 (antibody, V domains shown)
VH: B10 VH with I2V, R15G, G26D, D32Y, P41T, S51I, L53P, N63K
VL: B1 VL with K45R, Y93C, D97N, S99Y, S106G, E111G
notes: Full-length IgG from ExpiCHO
B16: Ab 392 (antibody, V domains shown)
VH: EVQLQQSGPELVKPGASVKMSCKASGFTFTSYVMHWVKQKSGQGLEWIGYINPYNDDIKYNAKFEDKATLTSDRSSSTAYMELSSLTSDDSAVYFCTRGDYWGQGTTLTVSS
VL: B4 VL with A12T, Q18K, N22D, T46S, S49P, T59I, Q61K, G99S
notes: Full-length IgG from ExpiCHO

Numbering of substitutions follows the chain as printed.

The target in the first assay is T1, human Claudin-18.2 (CLDN18.2) (human).
T1 construct: On cells: endogenous on HUPT4 and SNU601; also called human CLDN18.2
The assay can be described thus: FACS, 1.5 ug antibody, HEK293T-CLDN18.2 C12 clone. A general note: Flow cytometry measures light scatter and fluorescence of single cells or particles in a stream.
Procedure: (§1) FAGS assays were carried out to determine relative antigen binding strengths of the humanized antibodies (at either 1.5 ag or 0.3 rag) for binding to CLDN18.2 as expressed by the indicated cancer cell lines.
Regarding B1, the “FACS signal (relative antigen binding strength)” value was 80600.

Regarding B2, the “FACS signal (relative antigen binding strength)” value is 125000.

As for B3, the “FACS signal (relative antigen binding strength)” value stood at 137000.

The target in a further assay is T1, human Claudin-18.2 (CLDN18.2). Kind of assay: FACS, 1.5 ug antibody, HUPT4 cells (endogenous CLDN18.2).
Procedure: as §1
Turning to B1, the “FACS signal (relative antigen binding strength)” value was determined as 2450.

As for B2, the “FACS signal (relative antigen binding strength)” value was determined as 11100.

For B3, the “FACS signal (relative antigen binding strength)” value turned out to be 31300.

Another assay shares this target. The assay can be described thus: FACS titration of AF647-labelled IgG on HUPT4 cells (endogenous CLDN18.2).
Source text: (§2) CLDN18.2-expressing cells were used in FACS assays to determine the CLDN18.2 antibody's ability to bind to CLDN18.2 on the surface of cells and to cross-react with other CLDN family members. HEK293 T cells engineered to express human CLDN18.2 fused to GFP, mouse CLDN18.2 fused to GFP, CLDN18.1-GFP, or GFP alone (without CLDN18.2) were used as artificial models of CLDN18.2 expression. HUPT4, SNU601, and PATU8988S cells were used as endogenous models of CLDN18.2 expression.
(§3) For each type of cell tested and for each mAb, cells were detached from the surface of the culture flasks by versene (instead of trypsin) in order to protect the cell surface proteins. The detached cells were then incubated with Alexa Fluor®-labeled CLDN18.2 mAbs for 30 min in the dark on ice at a pre-determined concentration. […] After washing, the cells were read by a BD Accuri™ Flow Cytometer C6 to detect antibody-antigen protein binding in channel FL4H. Each antibody was tested at varied concentrations to establish a dose-fluorescence curve.
As a reminder, the EC50 is the concentration at which the effect is half-maximal. The molecule B4 yielded an EC50 of 143 nM.

For the molecule B5, a half-maximal effect (EC50) was put at 693 nM.

For B6, the midpoint of the response, the EC50, lay at 606 nM.

In turn, B7 displayed a 50% effective concentration (EC50) of 97.8 nM.

Turning to B8, the EC50 amounted to 294 nM. This EC50 lies about 3-fold higher than the previous one.

Take B9: the EC50 amounted to 111 nM. Against the preceding molecule, the EC50 is about 2.6-fold lower.

B10 yielded an EC50 of 348 nM.

In turn, B11 came in with an EC50 of 265 nM.

Consider B12, for which the EC50 was 336 nM.

The target is the same in another assay. Kind of assay: FACS titration of AF647-labelled IgG on SNU601 cells (endogenous CLDN18.2).
Source text: as §2, §3
As for B4, the EC50 was found to be 256 nM.

As to B5, the EC50 is 119 nM.

B6 displayed an EC50 of 106 nM.

In the case of B7, the EC50 stood at 270 nM.

B8 gave an EC50 of 276 nM.

With B9, the midpoint of the response, the EC50, lay at 414 nM.

For the molecule B10, the EC50 turned out to be 245 nM.

B11: the EC50 was found to be 276 nM.

Take B12: the response was half-maximal at 221 nM (EC50).

A further assay has the same target. The assay can be described thus: FACS titration of AF647-labelled IgG on HEK293T cells overexpressing human CLDN18.2 (clone C12).
Source text: as §2, §3
Turning to B13, the EC50 was determined as 605 nM.

With B4, the EC50 was 22.1 nM.

In turn, B14 had an EC50 of 597 nM.

B1 returned an EC50 of 1090 nM.

As for B5, a half-maximal effect (EC50) was put at 39.7 nM.

Turning to B15, the response was half-maximal at 595 nM (EC50).

With B6, the EC50 came to 23.1 nM. This EC50 lies about 26-fold lower than the previous one.

In the case of B7, the EC50 was 31.2 nM.

Molecule B2 returned an EC50 of 1740 nM.

In turn, B8 returned an EC50 of 70.4 nM. Against the preceding molecule, the EC50 is about 25-fold lower.

With B9, the half-maximal effective concentration (EC50) was determined as 54.5 nM.

Turning to B10, the concentration giving a half-maximal response (EC50) stood at 42.3 nM.

The molecule B11 yielded an EC50 of 40 nM. The EC50 values of the last two molecules are within 1.5-fold of each other.

Take B16: the response was half-maximal at 446 nM (EC50).

B3 had an EC50 of 52.1 nM. Compared with the last molecule, the EC50 is about 8.6-fold lower.

Consider B12, for which the midpoint of the response, the EC50, lay at 39.1 nM. This EC50 and that of the molecule before are within 1.5-fold of each other.

For the origin of these results see patent publication US20260104418A1 (published 2026).
